Assay results taken from US8361965B2, “Recombinant chimeric protein of neutrophil inhibitory factor and hirugen, and pharmaceutical composition thereof” (Lunan Pharmaceutical Group Corporation, priority 2008, dated 2013).
“Also recorded” adds a separate entry of the source. Like-named read-outs stand apart in the source and are kept apart here.

Tests used:
[1] = test system: cerebral ischemia in rats subjected to middle cerebral artery occlusion; type: in vivo, Wistar rats; conditions: for behavioral score: full score 11
[2] = test system: human peripheral blood leukocyte; assay: inhibition of H2O2 release from human peripheral blood leukocyte; type: cell-based
Protocol: 10 ml venous blood was taken from healthy people, and heparin sodium was added for anticoagulation. 10 ml HAS buffer (comprising RPMI 1640+10 mM HEPES+1.2 mM CaCl2+1.0 mM MgCl2+1% HAS, pH 7.4) was added into the blood and mixed. Leukocyte separation solution (Sangon) was charged into a sterile centrifuge tube, and whole blood mixture of the same volume was added slowly, and then centrifuged at 2000 rpm for 15 min. Leukocyte solution was taken from the interface and appropriate 1640 culture medium was added, centrifuged for 10 min, and washed twice. The supernatant was discarded, and appropriate HAS Buffer was added for resuspending the precipitate so as to prepare leukocyte suspension. The cell density was counted and adjusted to 4×10^7/ml. The product was separated at 37° C. and used within an hour.
Coating the 24-well plate with Hank's solution comprising 50% fetal bovine serum and culturing at 37 for 60 min; washing the plate with 0.15 M NaCl twice; diluting the cells to 6.0×10^6/ml with the buffer solution for release assay, adding cells, and culturing at 37 for 5 min; adding FMLP to the final concentration of 250 nM; adding TNHH samples at different concentrations and culturing at 37 for 60 min; pipetting the cell suspension, centrifuging at 8000×g for 3 min, and collecting the supernatant. Adding the supernatant into multiple-wells of a 96-well ELISA plate, adding 1 N NaOH (25 μl) for stopping the reaction, and determining the OD at 610 nm wavelength. Calculating the IC50 value of TNHH for inhibiting H2O2 release, and using the standard H2O2 solution as a control.

rabbit whole blood = assay: in vitro whole blood anticoagulation assay; design: species or system white rabbit; conditions: for Test results (blood coagulation): room temperature 15 min
Protocol: TNHH was diluted to 4 mg/ml, 2 mg/ml, 1 mg/ml, 0.5 mg/ml respectively with phosphate buffer solution (10 mmol/L PB, 0.15 mol/L NaCl, pH7.4). Heparin sodium was prepared to 1 mg/ml with the same buffer solution.
Venous blood was taken from marginal ear vein of the rabbit, and rapidly added into 0#-5# tubes. 0.2 ml of the diluted TNHH samples with different concentrations was added into the 1#-4# tubes, respectively. 0.2 ml phosphate buffer solution was added into the 0# tube, which was used as a negative control. 0.2 ml heparin sodium (1 mg/ml) was added into the 5# tube, which was used as a positive control. The reagents were mixed rapidly and stored at room temperature for 15 min for observing the results.

thrombin [3] = molecular target: T1, thrombin (Homo sapiens, UniProt P00734); assay: in vitro binding of TNHH to thrombin (SEC-HPLC); design: Human thrombin (127 Unit/ampoule), Lot No.: 20021105; purchased National Institute for The Control of Pharmaceutical and Biological Products Lot No.: 20021105; conditions: 37° C. 1 h
Protocol: Weigh TNHH, dilute to 1.0 mg/ml with phosphate buffer solution, and is ready for use; Weight fibrin precisely, dissolve and dilute to 0.1 mg/ml with phosphate buffer solution, and is ready for use; Weigh thrombin, dissolve and dilute to 100 units/ml with phosphate buffer solution, which is ready for use.
Following the below procedures, test materials were reacted at 37° C. for 1 h, and then analyzed under the following chromatographic conditions.
(1) pipette test material solutions (20 μl for each), loading for analysis, and recording each retention time.
(2) pipette fibrin and thrombin solutions (0.5 ml for each), mixing and reacting at 37° C. for 1 h, and loading 20 μl sample for analysis.
(3) pipette TNHH and fibrin solutions (0.5 ml for each), mixing and reacting at 37° C. for 1 h, and loading 20 μl sample for analysis.
(4) pipette TNHH and thrombin solutions (0.5 ml for each), mixing and reacting at 37° C. for 1 h, and loading 20 μl sample for analysis.
(5) pipette TNHH and mixture of fibrin and thrombin solutions (0.5 ml for each), mixing and reacting at 37° C. for 1 h, and loading 20 μl sample for analysis.
Flow rate 0.5 ml/min; detection wavelength: 214 nm, Column temperature: room temperature; chromatogram recording time: 25 min.

thrombin [4] = molecular target: T1, thrombin; assay: in vitro test for reversible reaction of TNHH and thrombin (Hirudin ELISA); type: biochemical; design: Human thrombin (127 Unit/ampoule), Lot No.: 20021105; purchased National Institute for The Control of Pharmaceutical and Biological Products Lot No.: 20021105
Protocol: Adding 1.27 ml water into one ampoule of human thrombin, and mixing to obtain 100 Unit/ml solution; diluting the mother liquid of TNHH with water to 1.0 mg/ml, taking 0.5 ml thus obtained solution and adding 0.1 ml thrombin solution ([…] of thrombin), reacting at 37 for 2 hr, centrifuging and collecting the supernatant, diluting for 10 times with the dilution solution (taught by the instruction of IMUBIND® Hirudin ELISA Kit), repeating the dilution for 6 times at a four fold gradient, detecting according to the instruction of IMUBIND® Hirudin ELISA Kit, and determining the absorbance at 450 nm wavelength.

B1: TNHH: recombinant chimeric protein of neutrophil inhibitory factor and hirugen, Met-NIF-GGGGG-FPRPGSGG-Hirugen (SEQ ID NO: 3), expressed in E. coli (protein)
chain: MNEHNLRCPQNGTEMPGFNDSIRLQFLAMHNGYRSKLALGHISITEESESDDDDDFGFLPDFAPRASKMRYLEYDCEAEKSAYMSARNCSDSSSPPEGYDENKYIFENSNNISEAALKAMISWAKEAFNLNKTKEGEGVLYRSNHDISNFANLAWDAREKFGCAVVNCPLGEIDDETNHDGETYATTIHVVCHYPKINKTEGQPIYKVGTPCDDCSEYTKKADNTTSADPVCIPDDGVCFIGSKADYDSKEFYRFRELGGGGGFPRPGSGGNGDFEEIPEEYL
modifications: N-terminal Met
- behavioral score ([1]; 2 mg/kg bid caudal vein, 4 h): 6.5 ± 1.0
- behavioral score ([1]; 2 mg/kg bid caudal vein, 8 h): 6.2 ± 1.2
- behavioral score ([1]; 2 mg/kg bid caudal vein, 24 h): 5.8 ± 1.2
- behavioral score ([1]; 2 mg/kg bid caudal vein, 48 h): 5.3 ± 0.5
- behavioral score ([1]; 2 mg/kg bid caudal vein, 72 h): 5.0 ± 0.6
- pathological section of brain (cerebral cortex nerve cells) ([1]; 2 mg/kg bid caudal vein, HE, compared with model group): least pathological changes; also recorded: more regular structural arrangements, a portion of deeply stained nucleus, and some cytoplasmic shrinkage or disappearance
- Cerebral infarction volume (%) ([1]; 72 h): 23.2 ± 5.4 %
- IC50 value for inhibiting H2O2 release ([2]; FMLP 250 nM, 60 min): 8.5 µg/mL
- Inhibition ratio (%) ([2]; TNHH 0.781 μg/ml): −1.3%
- Inhibition ratio (%) ([2]; TNHH 1.562 μg/ml): 6.55%
- Inhibition ratio (%) ([2]; TNHH 3.125 μg/ml): 22.76%
- Inhibition ratio (%) ([2]; TNHH 6.25 μg/ml): 40.17%
- Inhibition ratio (%) ([2]; TNHH 12.5 μg/ml): 50.82%
- Inhibition ratio (%) ([2]; TNHH 25 μg/ml): 61.45%
- Inhibition ratio (%) ([2]; TNHH 50 μg/ml): 79.91%
- Inhibition ratio (%) ([2]; TNHH 100 μg/ml): 81.99%
- inhibition ratio compared with the control group ([2]; concentration not given): about 70%
- Test results (blood coagulation) (rabbit whole blood; 0.2 ml TNHH 0.5 mg/ml + 1.0 ml rabbit blood): coagulated
- Test results (blood coagulation) (rabbit whole blood; 0.2 ml TNHH 1 mg/ml + 1.0 ml rabbit blood): coag-
- Test results (blood coagulation) (rabbit whole blood; 0.2 ml TNHH 2 mg/ml + 1.0 ml rabbit blood): coag-
- Test results (blood coagulation) (rabbit whole blood; 0.2 ml TNHH 4 mg/ml + 1.0 ml rabbit blood): coag-
- whole blood anticoagulation effects in vitro (rabbit whole blood; TNHH 0.5-4 mg/ml): no whole blood anticoagulation effects
- blood coagulation (rabbit whole blood; different concentrations of TNHH (0.5-4 mg/ml)): coagulated
- binding with thrombin (thrombin [3]): could bind with fibrin and thrombin
- in vitro interaction with thrombin (reversibility) (thrombin [4]; 37, 2 hr, Hirudin ELISA of supernatant): irreversible
- hydrolysis by thrombin (thrombin [4]; structure FPRP-GSGG-hirugen within TNHH): could not be hydrolyzed by thrombin
